Bridge positions count the residues as written; N and C are the ends. Square brackets hold non-standard residues; d marks the D form. Primed or numbered codes have the meaning given here. Side chains are listed from the residue outwards. PEG4″ = PEG chain having 4 ethylene glycol repeat units; 4‑arm scaffold = not defined here
Key:
Assay in all cases: cell-based or functional assay
[1] = target: HIV-1 gp41 of strain JRFL (HIV-1 strain JRFL)
[2] = target: T1, HIV-1 gp41 of strain HXB2 (HIV-1 strain HXB2, UniProt P04578 512-856)
[3] = target: HIV-1 gp41 of strain JRFL (HIV-1 strain JRFL); remark: listed apart in the source
[4] = target: T1, HIV-1 gp41 of strain HXB2; remark: listed apart in the source

B1: Palmitate-conjugated PIE12-trimer (peptide)
peptide: Ac-[dH][dP][dC][dD][dY][dP][dE][dW][dQ][dW][dL][dC][dE][dL]G[dK]([PEG4″-4‑arm scaffold])-NH2
modifications: disulfide 3-12 (inferred); reading uncertain; also: trimer: three PIE12 monomers on 4-arm scaffold, fourth arm PEG24 with D-cysteine bridge carrying palmitate
Question: For B1, which “Antiviral potency, IC50, JRFL pseudovirion entry assay” value [1] is on record?
Answer: 0.54 nM

Question: What about the “Antiviral potency, IC50, HXB2 pseudovirion entry assay” value [2] of the same binder?
Answer: 0.225 nM

Question: And the “fold increase in potency against unconjugated PIE12-trimer (JRFL)” value [3]?
Answer: 3 to 4 fold

Question: And the “fold increase in potency against unconjugated PIE12-trimer (HXB2)” value [4]?
Answer: 3 to 4 fold

B2: CPT24-5 kD (peptide)
peptide: Ac-[dH][dP][dC][dD][dY][dP][dE][dW][dQ][dW][dL][dC][dE][dL]G[dK]([PEG4″-4‑arm scaffold])-NH2
modifications: disulfide 3-12 (inferred); reading uncertain; also: PIE12 trimer on 4-arm scaffold, fourth arm 5 kDa linear polydisperse PEG with thiocholesterol
Question: For B2, which “Antiviral potency, IC50, JRFL pseudovirion entry assay” value [1] is on record?
Answer: 0.026 nM

B3: 40 kD PEG-PEG24-PIE12 trimer (peptide)
peptide: Ac-[dH][dP][dC][dD][dY][dP][dE][dW][dQ][dW][dL][dC][dE][dL]GK-NH2
modifications: disulfide 3-12 (inferred); not fully specified (residue 16); also: trimer: three PIE12 monomers on 4-arm scaffold, fourth arm PEG24 carrying 40 kDa Y-branched PEG
Question: What does the source list for B3?
Answer: Antiviral potency, IC50, JRFL pseudovirion entry assay [1]: 71 nM; Antiviral potency, IC50, HXB2 pseudovirion entry assay [2]: 9.5 nM; fold reduction of potency against unconjugated PIE12-trimer (JRFL) [3]: 34 fold; fold reduction of potency against unconjugated PIE12-trimer (HXB2) [4]: 13 fold

— patent US20190023748A1 (NAVIGEN, published 2019)
